Among the data in the supplement of paper PMC12042874 are amyloid nucleation score values, retold here.

± gives the uncertainty stated by the source.

A short description of the data set: amyloid nucleation score (Sup35N fusion, yeast selection) (log enrichment); library NNK1; higher = more nucleation; inactive = no reads after selection. The procedure, abridged: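 The nucleation score is a DiMSum log enrichment of output over input reads, centred on the mode score of non-aggregating sequences. Sequences under 100 input reads were excluded, and reads came from Illumina sequencing of plasmid inserts. Psi-negative yeast expressing Sup35N fused to peptides of 20 random codons were induced with 100 μM copper sulfate for 24 hours and grown 7 days at 30°C on medium lacking adenine and uracil. Random libraries had three technical output replicates.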
For the substance NFSRIKYYGSYEVFIFAGNY, the amyloid nucleation score was 0.398 ± 0.79.
In turn, NFTSRYEANFTVFSFRAWRL showed an amyloid nucleation score of 0.297 ± 0.36.
In the case of NFVIFKRFFNFHKNWNGWSR it was 3.8 ± 0.07; in that of NFVQLAWLVRWAWEV, -0.088 ± 0.56.
Substance NFVSYTFLCCGCVVLILVTS yielded an amyloid nucleation score of 0.114 ± 0.28.
For the substance NGFSDRKLDFHTRHMGH, the amyloid nucleation score is -0.147 ± 0.36.
Consider NGMIFFVIGMNFGCQESSRN, for which the amyloid nucleation score stood at 6.208 ± 0.051.
With NGNLKRSSEVFHCFGISLEF, the amyloid nucleation score was determined as 0.694 ± 0.36.
NGTWYILSQASFFYELDAYC yielded an amyloid nucleation score of -0.012 ± 0.43.
NGWIMRR: the amyloid nucleation score was -0.094 ± 1.5.
In turn, NGYIKRVFFSVNMFSMHTSF registered an amyloid nucleation score of 0.079 ± 0.48.
NHCFLVRWNISKSSRDVSWC had an amyloid nucleation score of 0.142 ± 0.47.
In the case of NHHLRPEMQEVCHL, the amyloid nucleation score is 0.482 ± 0.67.
In the case of NHVLVVGISNLSSCHWMPNF it was 3.14 ± 0.12; in that of NHYCRFHFTLESFLAGHVAN, 1.38 ± 0.23.
Substance NHYGSVAGLPPNNHWVSFCV showed an amyloid nucleation score of -0.373 ± 0.99.
Substance NIASGFGFPYRGVLSC returned an amyloid nucleation score of 0.184 ± 1.
NICMQTRVIRAS: the amyloid nucleation score worked out at 0.811 ± 0.5.
In the case of NIEIRVCSRIVGHGLKFPKP, the amyloid nucleation score was 3.37 ± 0.17.
As to NIGIMNFIVLAFLQ, the amyloid nucleation score came to 6.529 ± 0.062.
As for NINFGVVSYSVYMLL, the amyloid nucleation score turned out to be 6.649 ± 0.054.
Substance NISPISYKIVVTIYSYFWLS registered an amyloid nucleation score of 0.452 ± 0.4.
The substance NISSIASVWVCVKVRYVSYS displayed an amyloid nucleation score of 0.432 ± 0.59.
In the case of NKCIAKDGDMES it was -0.015 ± 0.23.
The substance NKRVHWLSGRLWIWYHWWVI yielded an amyloid nucleation score of -1.5 ± 1.7.
The substance NKSHAHLKVAMSLVCPFKSH yielded an amyloid nucleation score of 1.5 ± 0.44.
Turning to NKSVNLEYGRWVNMVPGLM, the amyloid nucleation score result is “inactive”.
As to NLCFLITNYINRLNFYNFVV, the amyloid nucleation score was 0.807 ± 0.93.
On to NLCRIRIARLQHGGRSTMSF, for which the amyloid nucleation score was 1 ± 0.73.
In the case of NLCYHWVRNIQNGQRFLCQL, the amyloid nucleation score entry is “inactive”.
NLGLDVCEYIVVTWLTNDWS yielded an amyloid nucleation score of -0.258 ± 0.51.
NLINVFTLKWFDITL registered an amyloid nucleation score of 5.686 ± 0.053.
NLLSALNMVVFHNLEFYVIF: the amyloid nucleation score came to 2.58 ± 0.25.
For the substance NLLWNTVIIFDFVRNLWTWS, the amyloid nucleation score was determined as 0.813 ± 0.72.
In the case of NLNSMAFV it was 0.662 ± 0.56; in that of NLPLLFL, -0.069 ± 0.27.
Take NLPSSKKVLPCFFLRSIYGC: the amyloid nucleation score is 0.9 ± 0.4.
NLRYSFFFNSDNSRVWECS had an amyloid nucleation score of 0.682 ± 0.35.
NLSALLHDHFMGPIDLKFLT came in with an amyloid nucleation score of 1.8 ± 0.52.
Turning to NLSSSRSVVKNLTFQMWNTS, the amyloid nucleation score worked out at 4.45 ± 0.063.
In the case of NLTFGYVGHK it was 3.91 ± 0.087.
Substance NLTHARGVSSVQRGVMSRTG displayed an amyloid nucleation score of -0.747 ± 0.6.
NLTWAGTLY had an amyloid nucleation score of -0.875 ± 1.5.
As for NLVWSYFLLGTDSYITTYDW, the amyloid nucleation score was determined as 0.314 ± 0.79.
The substance NMCNLSFLQ displayed an amyloid nucleation score of 0.104 ± 1.1.
NMFTFLSKRR displayed an amyloid nucleation score of -0.928 ± 0.4.
NMHLTYETDRFARYVNSKFN: the amyloid nucleation score is 0.744 ± 0.46.
In turn, NMHNQVAFISCSFILFDVIN had an amyloid nucleation score of 6.95 ± 0.07.
As to NMIVKSATEAANSP, the amyloid nucleation score came out at 1.25 ± 0.56.
NMLVRKAG came in with an amyloid nucleation score of -0.036 ± 0.73.
The substance NMTFSMPSNINCPFLGLR gave an amyloid nucleation score of 0.29 ± 0.47.
NMVLRFQCLWFCFISIPF: the amyloid nucleation score turned out to be 3.16 ± 0.14.
In the case of NMYKSMNQSTE it was -0.705 ± 0.26; in that of NNAHRSVVWRYLVCFSCDFG, 6.454 ± 0.064.
Take NNFSCMDHILSMVKLWDVFG: the amyloid nucleation score is -0.847 ± 0.59.
In the case of NNINWVKGKHR it was -1.06 ± 2.4; in that of NNLMFNYSGHMVSVKAHSSG, 0.776 ± 0.43.
